Each block holds one binder with its values, some of them ahead of it. Where no end group is shown, it is not given here. The star is where a group is joined. FITC = O=C1OC2(c3ccc(O)cc3Oc3cc(O)ccc32)c2ccc(NC(=S)*)cc21
Tests used:
DDB1–DCAF12–DDA1 complex = DDB1–DCAF12–DDA1 complex (human | , UniProt Q5T6F0 1-453; Q5T6F0 1-453; Q9BW61 1-102); assay: FP
[1] = target: biotinylated DCAF12 (Δ1–78) (human, UniProt Q5T6F0 79-453, biotin); assay: SPR

Kd (DDB1–DCAF12–DDA1 complex): 130 nM
B1: FITC-labeled CCT5 peptide (peptide)
peptide: {FITC}-IRKPGESEE

Kd (DDB1–DCAF12–DDA1 complex): 60 nM
B2: FITC-labeled MAGEA3 peptide (peptide)
peptide: {FITC}-LHEWVLREGEE

koff [1]: 0.06 s⁻¹
B3: unlabeled MAGEA3 peptide (peptide)
peptide: LHEWVLREGEE

koff [1]: 0.017 s⁻¹
B4: unlabeled CCT5 peptide (peptide)
peptide: IRKPGESEE

From publication PMC11044963 (2024)
